Results published in the supplement of paper PMC7877785.
± gives the uncertainty stated by the source.

Experiment: self-splicing fitness, log relative to wild type (ln ratio); higher = more splicing; Tetrahymena group I intron in knt gene, E. coli kanamycin selection, DiMSum; sequences stand for … in CUCUCU…GGAGGGAAAAGUUAUCAGGCAUGCACCUGGUAGCUAGUCUUUAAACCAAUAGAUUGCAUCGGUUUAAAAGGCAAGACCGUCAAAUUGCGGGAAAGGGGUCAACAGCCGUUCAGUACCAAGUCUCAGGGGAAACUUUGAGAUGGCCUUGCAAAGGGUAUGGUAAUAAGCUGACGGACAUGGUCCUAACCACGCAGCCAAGUCCUAAGUCAACAGAUCUUCUGUUGAUAUGGAUGCAGUUCACAGACUAAAUGUCGGUCGGGGAAGAUGUAUUCUUCUCAUAAGAUAUAGUCGGACCUCUCCUUAAUGGGAGCUAGCGGAUGAAGUGAUGCAACACUGGAGCCGCUGGGAACUAAUUUGUAUGCGAAAGUAUAUUGAUUAGUUUUGGAGUACUCGUGGUCG
How it was run: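 Pooled colonies went to amplicon sequencing on an Illumina HiSeq 2500 after six replicate transformations. The plates were LB agar with 100 μg/mL carbenicillin, 50 μM IPTG and 0.2% rhamnose, with or without 25 μg/mL kanamycin, incubated overnight at 37°C or 30°C. The E. coli BL21(DE3) library had all eight P1ex-region intron nucleotides randomised, the intron placed in the knt kanamycin-resistance gene on pET-22b(+). DiMSum fitness is the error-weighted combination of replicate fold changes, kanamycin against none, normalised to wild type.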

Sequence	self-splicing fitness (ln) (30 °C)	self-splicing fitness (ln) (37 °C)
AUCUAGCAAUAUUACGAUUA	-0.971 ± 0.11	-0.836 ± 0.11
UAGAAGCAAUAUUACGAAGA	-1.77 ± 0.18	-0.969 ± 0.17
UCCAAGCAAUAUUACGCGGU	-2.56 ± 0.13	-1.92 ± 0.16
GGGUAGCAAUAUUACGAGGC	-3.89 ± 0.47	-2.19 ± 0.25
GCCCAGCAAUAUUACGCAGC	-1.83 ± 0.12	-1.38 ± 0.13
ACUCAGCAAUAUUACGUAGG	-0.866 ± 0.06	-0.368 ± 0.092
AAGCAGCAAUAUUACGGCCA	-0.775 ± 0.18	0.116 ± 0.25
CUCCAGCAAUAUUACGUUCA	-3.32 ± 0.29	-2.85 ± 0.25
GUUUAGCAAUAUUACGACCA	-1.56 ± 0.35	-0.943 ± 0.35
CGCAAGCAAUAUUACGCCUG	-1.96 ± 0.13	-2.52 ± 0.23
GCAGAGCAAUAUUACGGGGG	-3.1 ± 0.34	-3.56 ± 0.39
GCUUAGCAAUAUUACGUCUC	-0.196 ± 0.096	0.386 ± 0.1
UGUCAGCAAUAUUACGAAGC	-3.79 ± 0.18	-0.785 ± 0.17
AGAUAGCAAUAUUACGAAAA	-2.71 ± 0.24	-2.12 ± 0.22
GUUUAGCAAUAUUACGUACA	-0.582 ± 0.2	-0.508 ± 0.22
ACCCAGCAAUAUUACGUUAG	-3.31 ± 0.11	-3.09 ± 0.15
AGGAAGCAAUAUUACGAGGU	-3.85 ± 0.34	-2.97 ± 0.24
CCCAAGCAAUAUUACGUGAC	-3.91 ± 0.25	-2.03 ± 0.19
AUCCAGCAAUAUUACGCCGA	-1.37 ± 0.1	-0.75 ± 0.14
GGCCAGCAAUAUUACGAACG	-2.65 ± 0.41	-0.764 ± 0.3
UGACAGCAAUAUUACGCUCU	-0.946 ± 0.083	-0.389 ± 0.093
UAAUAGCAAUAUUACGUCUA	-0.149 ± 0.084	0.263 ± 0.087
UGCUAGCAAUAUUACGAUCC	-0.317 ± 0.41	
CCUCAGCAAUAUUACGUCAG	-2.92 ± 0.097	-1.73 ± 0.1

Sequence	self-splicing fitness (ln) (30 °C)	self-splicing fitness (ln) (37 °C)
CCUCAGCAAUAUUACGGUAU	-4.53 ± 0.24	-2.52 ± 0.15
GCAUAGCAAUAUUACGGAAC	-3.61 ± 0.29	-3.46 ± 0.34
CCAGAGCAAUAUUACGAGGU	-3.71 ± 0.24	-2.77 ± 0.29
GCACAGCAAUAUUACGUGAU	-0.331 ± 0.029	0.114 ± 0.044
CGAUAGCAAUAUUACGCGUG	-1.89 ± 0.092	-0.431 ± 0.1
UUCCAGCAAUAUUACGUGAA	0.179 ± 0.072	-0.102 ± 0.094
UUACAGCAAUAUUACGGCGC	-2.88 ± 0.18	-0.508 ± 0.13
UCUGAGCAAUAUUACGUUAU	-3.6 ± 0.31	-3.68 ± 0.42
GCUUAGCAAUAUUACGGUCG	-1.78 ± 0.12	-1.41 ± 0.16
AACAAGCAAUAUUACGAGCG	-0.912 ± 0.057	0.125 ± 0.078
GGGAAGCAAUAUUACGUCAG	-2.92 ± 0.33	-2.52 ± 0.33
CAAGAGCAAUAUUACGUCAC	-3.05 ± 0.21	-2.75 ± 0.23
AAAAAGCAAUAUUACGAAUA	-1.42 ± 0.1	-0.458 ± 0.095
GGACAGCAAUAUUACGCGAA	-1.07 ± 0.08	-0.612 ± 0.094
CUUGAGCAAUAUUACGCCAU	-2.92 ± 0.22	-3.8 ± 0.46
UCAUAGCAAUAUUACGCCUU	-3.75 ± 0.4	-1.52 ± 0.33
CUCGAGCAAUAUUACGCAAA	-2.55 ± 0.33	-3.66 ± 0.46
GUUAAGCAAUAUUACGGGGU	-2.73 ± 0.28	-2.88 ± 0.35
AGUGAGCAAUAUUACGGCUA	-0.705 ± 0.24	-1.38 ± 0.23
GGUAAGCAAUAUUACGCAAG	-3.39 ± 0.26	-2.03 ± 0.22
CCCUAGCAAUAUUACGGUGU	-3.05 ± 0.098	-2.19 ± 0.11
UCUGAGCAAUAUUACGACGG	-1.18 ± 0.11	-0.451 ± 0.12
GAGAAGCAAUAUUACGGGCC	-2.03 ± 0.22	-2.56 ± 0.41
UUGCAGCAAUAUUACGUCAA	-1.48 ± 0.1	-0.523 ± 0.11
